From paper PMC5752578 (Structure (London, England : 1993), 2017) come the findings set out here.

For data set [1], the target named is T1, Grp1 63-399 E161A part of the Grp1 63-399 E161A Arf6 Q67L fusion (mouse, UniProt O08967 63-399, E161A).
T1 sequence (looked up): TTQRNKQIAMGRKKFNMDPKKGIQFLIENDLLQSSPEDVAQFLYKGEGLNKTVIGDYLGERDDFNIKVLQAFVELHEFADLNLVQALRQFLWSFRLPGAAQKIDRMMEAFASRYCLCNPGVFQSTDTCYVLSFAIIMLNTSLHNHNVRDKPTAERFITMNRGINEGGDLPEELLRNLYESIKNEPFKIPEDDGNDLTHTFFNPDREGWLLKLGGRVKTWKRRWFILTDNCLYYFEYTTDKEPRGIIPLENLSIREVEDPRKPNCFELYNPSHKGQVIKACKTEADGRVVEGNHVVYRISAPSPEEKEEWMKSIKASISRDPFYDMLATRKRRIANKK
Nature of the data set: SEC-SAXS. In general terms: Size exclusion chromatography separates by hydrodynamic size, large species first.

Data set [2] concerns the molecule itself. Nature of the data set: SEC-SAXS.

B1: Arf6 Q67L part of the Grp1-Arf6 fusion constructs, loaded with GppNHp (natural protein, human)
chain: GKVLSKIFGNKEMRILMLGLDAAGKTTILYKLKLGQSVTTIPTVGFNVETVTYKNVKFNVWDVGGLDKIRPLWRHYYTGTQGLIFVVDCADRDRIDEARQELHRIINDREMRDAIILIFANKQDLPDAMKPHEIQEKLGLTRIRDRNWYVQPSCATSGDGLYEGLTWLTSNYK
Take B1: the binding result in data set [1] is “binds”.

B2: Grp1_(63-390) (mouse Grp1, diglycine splice variant, residues 63-390; fully active, lacking the polybasic region) (domain or fragment, UniProt O08967 63-390, looked up)
chain: TTQRNKQIAMGRKKFNMDPKKGIQFLIENDLLQSSPEDVAQFLYKGEGLNKTVIGDYLGERDDFNIKVLQAFVELHEFADLNLVQALRQFLWSFRLPGEAQKIDRMMEAFASRYCLCNPGVFQSTDTCYVLSFAIIMLNTSLHNHNVRDKPTAERFITMNRGINEGGDLPEELLRNLYESIKNEPFKIPEDDGNDLTHTFFNPDREGWLLKLGGRVKTWKRRWFILTDNCLYYFEYTTDKEPRGIIPLENLSIREVEDPRKPNCFELYNPSHKGQVIKACKTEADGRVVEGNHVVYRISAPSPEEKEEWMKSIKASISRDPFYDMLAT
As for B2, in data set [2], the “stoichiometry N” value stood at 2.

As a reminder, the stoichiometry N is the number of molecules, sites or subunits per partner or assembly.
